Data taken from PMC2993744.
Values joined by “and” are separate entries in the source; they are usually repeats but may differ in a detail not shown here. Equal entries are not always repeated.

Experiments:
[1] = molecular target: TatB, wild type (E. coli) (UniProt P69425); assay: cross-linking
TatB(L54Bpa) (E. coli) = TatB(L54Bpa) (E. coli) (UniProt P69425); assay: cross-linking

Substance | percent of the vesicle-associated pSufI in the TatB adduct [1] [%] | stoichiometry N (TatB(L54Bpa) (E. coli))
pSufI(L328Bpa) (from UniProt P26648 1-470) (natural protein) | 15 | –
TatB(L54Bpa) (from UniProt P69425 1-171) (natural protein) | – | 2 and 3
